We go through 3 substances from paper PMC2778851.

The target in test [1] is His-HTLV-1 125 PR (N-terminally His-tagged full-length stabilized HTLV-1 protease) (Human T-lymphotropic virus type 1 (HTLV-1)). The test can be described thus: pull-down.
In test [2] the target is HTLV-1 120 PR (HTLV-1 protease shortened by 5 C-terminal residues) (Human T-lymphotropic virus type 1 (HTLV-1)). Nature of the test: activity-based dimerization assay.
The target of test [3] is HTLV-1 125 PR (stabilized full-length HTLV-1 protease) (Human T-lymphotropic virus type 1 (HTLV-1)). The test can be described thus: activity-based dimerization assay.
The target is the same in test [4]. Nature of the test: SEC. (In general: SEC sorts molecules by how far they enter the pores of the column.)

For “HTLV-1 115 PR (HTLV-1 protease shortened by 10 C-terminal residues) (domain or fragment)”, the densitometric ratio of the untagged to the His-tagged band (115/H125) in test [1] was determined as 37.3.

What is called Kd is the free concentration of one partner at which half of the binding sites on the other are occupied at equilibrium, for simple one-to-one binding. Higher therefore signals weaker binding. For the substance “HTLV-1 120 PR (HTLV-1 protease shortened by 5 C-terminal residues) (domain or fragment)”, the Kd in test [2] is above 3 µM. Further, the densitometric ratio of the untagged to the His-tagged band (120/H125) in test [1] worked out at 37.2.

What is called stoichiometry N is the number of molecules, sites or subunits per partner or assembly. “HTLV-1 125 PR (stabilized full-length HTLV-1 protease) (enzyme)”: the Kd in test [3] was found to be 0.491 µM. Moreover, the stoichiometry N in test [4] was 2. Besides, in test [1], the densitometric ratio of the untagged to the His-tagged band (125/H125) was 84.9.
